System: Escherichia coli TOP10
Experiment: shrunken log2 fold change of peptide-encoding DNA abundance (4.5 h post-induction vs induction); higher = less antimicrobial activity (less host growth inhibition)
Settings: time post-induction: 4.5 h; library: site-saturation at positions 5, 18, 19, 20
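Note: peptides expressed intracellularly from a pBAD plasmid library in pooled LB shake-flask culture, induced with 0.3% L-arabinose, DNA abundance read by NGS, three biological replicates, DESeq2 with apeglm shrinkage.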

| Sequence | shrunken log2 fold change |
| --- | --- |
| RRIRMRPPRLPRPRPRPEDAPRP | 3.45 |
| RRIRPRPPRLPRPRPRPVIVPRP | -0.212 |
| RRIRMRPPRLPRPRPRPHEVPRP | 0.16 |
| RRIRFRPPRLPRPRPRPTVLPRP | -0.0624 |
| RRIRWRPPRLPRPRPRPKQQPRP | -0.133 |
| RRIRIRPPRLPRPRPRPHQQPRP | -0.132 |
| RRIRARPPRLPRPRPRPDLGPRP | 0.438 |
| RRIRKRPPRLPRPRPRPGDKPRP | 0.0976 |
| RRIRWRPPRLPRPRPRPQIEPRP | 0.0601 |
| RRIRYRPPRLPRPRPRPRSFPRP | -0.0868 |
| RRIRDRPPRLPRPRPRPASYPRP | -0.0767 |
| RRIRIRPPRLPRPRPRPCKPPRP | -0.19 |
| RRIRIRPPRLPRPRPRPRIMPRP | -0.537 |
| RRIRPRPPRLPRPRPRPDMCPRP | 0.00204 |
| RRIRVRPPRLPRPRPRPLTKPRP | 0.044 |
| RRIRMRPPRLPRPRPRPNIYPRP | -0.124 |
| RRIRNRPPRLPRPRPRPRCLPRP | -0.157 |
| RRIRFRPPRLPRPRPRPEYKPRP | -0.0678 |
| RRIRCRPPRLPRPRPRPFLSPRP | -0.28 |
| RRIRPRPPRLPRPRPRPDPEPRP | 0.136 |
| RRIRERPPRLPRPRPRPFLYPRP | -0.761 |
| RRIRIRPPRLPRPRPRPQSNPRP | -0.197 |
| RRIRLRPPRLPRPRPRPQQIPRP | -0.878 |
| RRIRTRPPRLPRPRPRPMLHPRP | 0.111 |
| RRIRLRPPRLPRPRPRPEMMPRP | 2.57 |

| Sequence | shrunken log2 fold change |
| --- | --- |
| RRIRFRPPRLPRPRPRPFPFPRP | -0.177 |
| RRIRSRPPRLPRPRPRPKTMPRP | 0.0109 |
| RRIRYRPPRLPRPRPRPAHCPRP | 0.0564 |
| RRIRNRPPRLPRPRPRPRIEPRP | -0.117 |
| RRIRSRPPRLPRPRPRPCFRPRP | -0.349 |
| RRIRERPPRLPRPRPRPYRVPRP | -0.236 |
| RRIRLRPPRLPRPRPRPDIKPRP | -0.145 |
| RRIRCRPPRLPRPRPRPVATPRP | 0.443 |
| RRIRVRPPRLPRPRPRPAKIPRP | 0.117 |
| RRIRQRPPRLPRPRPRPCVKPRP | -0.0496 |
| RRIRPRPPRLPRPRPRPRHKPRP | -0.0467 |
| RRIRERPPRLPRPRPRPLNEPRP | -0.13 |
| RRIRCRPPRLPRPRPRPERSPRP | 0.0846 |
| RRIRCRPPRLPRPRPRPVPTPRP | 0.116 |
| RRIRWRPPRLPRPRPRPMLQPRP | 0.544 |
| RRIRHRPPRLPRPRPRPLRYPRP | -0.388 |
| RRIRRRPPRLPRPRPRPDWIPRP | -0.223 |
| RRIRMRPPRLPRPRPRPLTLPRP | -0.1 |
| RRIRWRPPRLPRPRPRPNWGPRP | 0.105 |
| RRIRYRPPRLPRPRPRPNLCPRP | -1.35 |
| RRIRHRPPRLPRPRPRPWRCPRP | -0.221 |
| RRIRTRPPRLPRPRPRPMVQPRP | 0.0197 |
| RRIRIRPPRLPRPRPRPEFNPRP | -0.0922 |
| RRIRIRPPRLPRPRPRPFGPPRP | -0.189 |
| RRIRMRPPRLPRPRPRPGNPPRP | 0.639 |

| Sequence | shrunken log2 fold change |
| --- | --- |
| RRIRHRPPRLPRPRPRPSENPRP | -0.096 |
| RRIRERPPRLPRPRPRPNAMPRP | 0.0107 |
| RRIRSRPPRLPRPRPRPAKMPRP | -0.0464 |
| RRIRLRPPRLPRPRPRPWNLPRP | -0.0149 |
| RRIRLRPPRLPRPRPRPESIPRP | 0.0419 |
| RRIRPRPPRLPRPRPRPLRQPRP | 0.0954 |
| RRIRERPPRLPRPRPRPRNWPRP | -0.0255 |
| RRIRARPPRLPRPRPRPFSTPRP | -0.572 |
| RRIRWRPPRLPRPRPRPDWLPRP | 0.111 |
| RRIRCRPPRLPRPRPRPQNIPRP | -0.237 |
| RRIRWRPPRLPRPRPRPKIRPRP | 0.00361 |
| RRIRDRPPRLPRPRPRPRELPRP | 0.0713 |
| RRIRSRPPRLPRPRPRPDSPPRP | 0.242 |
| RRIRKRPPRLPRPRPRPEGFPRP | 0.802 |
| RRIRTRPPRLPRPRPRPTSMPRP | 0.308 |
| RRIRGRPPRLPRPRPRPLMGPRP | 0.373 |
| RRIRGRPPRLPRPRPRPGNPPRP | 0.134 |
| RRIRYRPPRLPRPRPRPGEYPRP | -0.0574 |
| RRIRLRPPRLPRPRPRPAKEPRP | -0.049 |
| RRIRARPPRLPRPRPRPGDGPRP | 0.939 |
| RRIRPRPPRLPRPRPRPIWMPRP | 0.0829 |
| RRIRWRPPRLPRPRPRPGEDPRP | 0.381 |
| RRIRNRPPRLPRPRPRPKVQPRP | 0.341 |
| RRIRERPPRLPRPRPRPKMPPRP | -0.0401 |
| RRIRIRPPRLPRPRPRPRSAPRP | 0.0737 |

| Sequence | shrunken log2 fold change |
| --- | --- |
| RRIRGRPPRLPRPRPRPGKHPRP | 0.384 |
| RRIRARPPRLPRPRPRPEMAPRP | 0.739 |
| RRIRIRPPRLPRPRPRPYDMPRP | -0.19 |
| RRIRGRPPRLPRPRPRPNMTPRP | 1.63 |
| RRIRLRPPRLPRPRPRPSATPRP | 0.321 |
| RRIRSRPPRLPRPRPRPIVAPRP | 0.0103 |
| RRIRARPPRLPRPRPRPKYYPRP | -0.179 |
| RRIRIRPPRLPRPRPRPNSPPRP | 0.00971 |
| RRIRQRPPRLPRPRPRPSHIPRP | -0.0881 |
| RRIRERPPRLPRPRPRPHAPPRP | -0.0944 |
| RRIRQRPPRLPRPRPRPELCPRP | 0.177 |
| RRIRPRPPRLPRPRPRPDAAPRP | 0.721 |
| RRIRSRPPRLPRPRPRPYEYPRP | -0.55 |
| RRIRWRPPRLPRPRPRPYNKPRP | -1.34 |
| RRIRERPPRLPRPRPRPTEGPRP | 0.0858 |
| RRIRYRPPRLPRPRPRPRQQPRP | 0.226 |
| RRIRPRPPRLPRPRPRPNCWPRP | 1.74 |
| RRIRLRPPRLPRPRPRPPPIPRP | 0.935 |
| RRIRTRPPRLPRPRPRPTGEPRP | 0.178 |
| RRIRHRPPRLPRPRPRPPKSPRP | 0.398 |
| RRIRKRPPRLPRPRPRPSFRPRP | -0.294 |
| RRIRPRPPRLPRPRPRPQAVPRP | 0.0933 |
| RRIRKRPPRLPRPRPRPMTYPRP | -0.212 |
| RRIRIRPPRLPRPRPRPLDAPRP | -0.142 |
| RRIRTRPPRLPRPRPRPNHQPRP | -0.35 |

| Sequence | shrunken log2 fold change |
| --- | --- |
| RRIRLRPPRLPRPRPRPSRSPRP | -0.0638 |
| RRIRERPPRLPRPRPRPAWTPRP | 0.0563 |
| RRIRSRPPRLPRPRPRPGEVPRP | 0.223 |
| RRIRWRPPRLPRPRPRPADAPRP | 0.739 |
| RRIRARPPRLPRPRPRPKKIPRP | 0.489 |
| RRIRNRPPRLPRPRPRPDQTPRP | -0.0645 |
| RRIRRRPPRLPRPRPRPIGWPRP | 0.217 |
| RRIRQRPPRLPRPRPRPHFIPRP | -0.328 |
| RRIRMRPPRLPRPRPRPVPSPRP | 0.588 |
| RRIRQRPPRLPRPRPRPPGKPRP | 0.0921 |
| RRIRFRPPRLPRPRPRPQISPRP | -0.217 |
| RRIRTRPPRLPRPRPRPHHEPRP | -0.103 |
| RRIRCRPPRLPRPRPRPCCFPRP | -0.155 |
| RRIRCRPPRLPRPRPRPTGNPRP | 0.048 |
| RRIRARPPRLPRPRPRPGPYPRP | 1.85 |
| RRIRTRPPRLPRPRPRPSFYPRP | -0.343 |
| RRIRDRPPRLPRPRPRPLCVPRP | 0.248 |
| RRIRFRPPRLPRPRPRPGVDPRP | -0.145 |
| RRIRIRPPRLPRPRPRPHIAPRP | -0.957 |
| RRIRPRPPRLPRPRPRPACWPRP | 0.671 |
| RRIRARPPRLPRPRPRPVQGPRP | 0.47 |
| RRIRNRPPRLPRPRPRPVHVPRP | 0.0303 |
| RRIRQRPPRLPRPRPRPDTHPRP | -0.347 |
| RRIRYRPPRLPRPRPRPSINPRP | -0.39 |
| RRIRKRPPRLPRPRPRPTMKPRP | -0.0364 |

Reference: the supplement of paper PMC9112550, “Optimization of the antimicrobial peptide Bac7 by deep mutational scanning” (BMC Biology, 2022)
